Assay results published in patent US20140112930A1 (published 2014).

Columns and labels:
Mouse Ang-2FD-hFc = target: T1, Mouse Ang-2FD-hFc (mouse (Mus musculus)); assay: blocking ELISA, 16.67 nM antibody, Ang-2FD-hFc to coated hTie-2-mFc
T1 construct: also called dimeric mouse Ang-2FD

Human Ang-2FD-hFc = target: T2, Human Ang-2FD-hFc (human); assay: as above
T2 construct: also called dimeric human Ang-2FD; human Ang-2FD protein conjugated to human IgG

Biotin-hBA2 = target: T3, Biotin-hBA2 (human, biotinylated (sites not given)); assay: blocking ELISA, biotin-hBA2 to hTie-2; NB = no blocking observed at 5 nM concentration
T3 construct: hBA2 consists of two dimers; also called biotinylated hBA2; human bow-Ang2
Experimental: The plate was then blocked with PBS (Irvine Scientific, Santa Ana, Calif.) containing 0.5% BSA (Sigma-Aldrich Corp., St. Louis, Mo.) for one hour at room temperature. […] Human, mouse or monkey Ang-2FD protein conjugated to human IgG (Ang-2FD-hFc) were added to final concentrations of 2 nM, 8 nM, or 2 nM respectively and incubated for one hour at room temperature. The antibody/Ang-2FD-Fc mixture was then added to the plate containing hTie-2-mFc and incubated for one hour at room temperature. Detection of Ang-2FD-hFc bound to hTie-2-mFc protein was determined with Horse-Radish Peroxidase (HRP) conjugated to a-human IgG antibody (Jackson Immuno Research Lab, West Grove, Pa.) and developed by standard colorimetric response using tetramethylbenzidine (TMB) substrate (BD Biosciences, San Jose, Calif.). Absorbance was read at OD₄₅₀ for 0.1 sec.
For this experiment, human Tie-2 conjugated to a histidine tag (hTie-2-His; SEQ ID NO:526) was used in a similar fashion to the hTie-2-mFc described above. Antibody concentrations from 5 nM were serially diluted three-fold. […] An average IC₅₀ value for each antibody was calculated based on two separate experiments.

T3 sequence (chain, as listed by the source limits assumed): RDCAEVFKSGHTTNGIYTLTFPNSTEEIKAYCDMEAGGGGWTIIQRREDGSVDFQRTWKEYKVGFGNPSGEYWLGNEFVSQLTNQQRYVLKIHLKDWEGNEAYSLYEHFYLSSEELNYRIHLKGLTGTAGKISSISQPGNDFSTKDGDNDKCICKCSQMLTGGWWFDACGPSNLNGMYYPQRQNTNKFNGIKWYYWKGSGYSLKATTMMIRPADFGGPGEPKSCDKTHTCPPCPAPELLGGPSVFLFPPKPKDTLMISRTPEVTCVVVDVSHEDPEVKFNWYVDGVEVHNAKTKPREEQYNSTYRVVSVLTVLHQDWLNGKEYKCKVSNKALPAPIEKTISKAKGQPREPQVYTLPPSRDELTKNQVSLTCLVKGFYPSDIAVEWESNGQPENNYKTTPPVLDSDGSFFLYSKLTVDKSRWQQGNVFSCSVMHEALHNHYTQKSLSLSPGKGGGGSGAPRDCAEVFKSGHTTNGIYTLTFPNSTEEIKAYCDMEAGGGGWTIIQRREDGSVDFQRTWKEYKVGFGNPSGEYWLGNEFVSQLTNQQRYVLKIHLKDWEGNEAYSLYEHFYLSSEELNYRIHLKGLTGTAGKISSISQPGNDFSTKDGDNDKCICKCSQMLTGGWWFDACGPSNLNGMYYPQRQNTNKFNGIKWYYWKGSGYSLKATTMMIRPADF
T1 sequence (chain, as listed by the source limits assumed): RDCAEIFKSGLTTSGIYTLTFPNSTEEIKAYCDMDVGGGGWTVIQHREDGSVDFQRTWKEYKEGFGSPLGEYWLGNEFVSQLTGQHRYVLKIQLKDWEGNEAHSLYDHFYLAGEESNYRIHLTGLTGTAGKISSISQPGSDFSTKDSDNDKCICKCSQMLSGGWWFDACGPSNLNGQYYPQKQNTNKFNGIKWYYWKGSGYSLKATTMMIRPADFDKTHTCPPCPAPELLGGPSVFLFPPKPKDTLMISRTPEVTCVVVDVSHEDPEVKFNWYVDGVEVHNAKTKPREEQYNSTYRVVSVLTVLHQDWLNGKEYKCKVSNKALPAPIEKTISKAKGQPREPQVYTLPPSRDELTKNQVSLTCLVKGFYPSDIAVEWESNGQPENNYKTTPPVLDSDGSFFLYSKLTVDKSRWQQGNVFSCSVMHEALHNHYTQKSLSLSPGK
T2 sequence (chain, as listed by the source limits assumed): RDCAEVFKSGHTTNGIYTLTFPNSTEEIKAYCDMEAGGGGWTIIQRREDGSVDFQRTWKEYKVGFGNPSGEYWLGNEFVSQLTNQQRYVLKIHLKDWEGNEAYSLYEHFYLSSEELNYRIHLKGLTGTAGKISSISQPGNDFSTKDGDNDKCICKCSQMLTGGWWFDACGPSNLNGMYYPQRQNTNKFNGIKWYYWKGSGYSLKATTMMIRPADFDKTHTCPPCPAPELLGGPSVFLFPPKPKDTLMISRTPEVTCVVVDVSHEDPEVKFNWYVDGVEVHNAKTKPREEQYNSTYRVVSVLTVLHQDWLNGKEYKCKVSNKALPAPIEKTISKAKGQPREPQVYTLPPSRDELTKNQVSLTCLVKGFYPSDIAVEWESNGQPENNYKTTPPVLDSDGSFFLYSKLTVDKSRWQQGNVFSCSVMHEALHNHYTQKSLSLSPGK

Percent Blocking of Ang-2FD Binding to Tie-2 (Mouse Ang-2FD-hFc): 63.6%
Percent Blocking of Ang-2FD Binding to Tie-2 (Human Ang-2FD-hFc): 73.9%
IC50 (Biotin-hBA2): > 5 nM
B1: H1H693P (antibody, human IgG1, V domains shown)
VH: EVQLVESGGGLVQPGESLRLSCAASGFTFSSYAMSWVRQGPGKGLEWVSSISGSGGTTYYADSVEGRFTISRDNSKNTLYLHMNSLRAEDTAVYYCAKDFLDYSTYLAFDLWGQGTMVTVSS
VL: DIQMTQSPSSVSASVGDRVTITCRASQGISSWLAWYQQKPGKAPKLLIYAASSLQSGVPSRFSGSGSGTDFTLTISSLQPEDFATYYCQQANSFPRTFGQGTKVEIK
notes: Human IgG1
